Reference: article PMC13342644, “Structural basis for transport and inhibition of nucleotide sugar transport in pathogenic fungi” (Nature Communications, 2026)

Key:
[1] = target: GDP-mannose transporter Vrg4 from Candida albicans (Candida albicans, UniProt Q5A477)
[2] = target: T1, Avi-tagged, biotinylated GDP-mannose transporter Vrg4 from Candida albicans (Candida albicans (SC5314 entry Q5A477), UniProt Q5A477); assay: ELISA; conditions: both partners purified
T1 construct: also called biotinylated CaVrg4; source: S. cerevisiae strain BJ5460, purified as the untagged version, biotinylated using BirA ligase; not shown: Avi tag, C-terminal, kept
T1 sequence (Q5A477 34-371, one chain of several): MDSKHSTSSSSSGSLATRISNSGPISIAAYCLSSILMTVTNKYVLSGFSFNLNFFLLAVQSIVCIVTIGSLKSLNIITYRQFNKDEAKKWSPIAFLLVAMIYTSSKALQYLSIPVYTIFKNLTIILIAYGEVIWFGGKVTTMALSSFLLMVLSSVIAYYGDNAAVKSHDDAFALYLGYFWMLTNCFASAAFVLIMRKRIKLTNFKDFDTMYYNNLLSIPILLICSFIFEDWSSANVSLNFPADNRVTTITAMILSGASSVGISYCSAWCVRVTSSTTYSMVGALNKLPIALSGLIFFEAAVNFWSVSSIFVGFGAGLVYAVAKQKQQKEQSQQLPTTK

GDP-mannose transporter Vrg4 from Candida albicans, sequence (Q5A477 34-371): as the sequence (Q5A477 34-371, one chain of several) above

B1: NB1 (VHH)
VHH: QVQLVESGGGLVQPGGSLRLSCAASGTSFTINVMAWYRQAPGKQRELVAGITSGGTTNYADAVKGRFAITSDNAKNTVYLQMNGLKSEDTAVYYCNAATTVPYPDYGFSLGTYDYEAWGQGTQVTVSS
B1 showed a Kd [1] of 109 nM.

B2: NB2 (VHH)
VHH: QVQLVESGGGLVQPGGSLRLSCAASRIKRNIMSMGWYRQAPGKQRELVATLLRGGVTNYADSVKGRFTISRDNAKNTLYLQMNSLKPEDTAVYYCTLKEQMFDTTYWGQGTQVTVSS
B2 showed a Kd [1] of 125 nM.

B3: nanobody NB3 (VHH)
VHH: QVQLVESGGGLVQPGGSLRLSCAASGSISEINVMGWYRQAPGKQRELVARITTGGSTNYADSVKGRFTISRDNAKNTVYLQMNSLKPEDTAVYMCNAHRRVVMEWGPLGYDYWGQGTQVTVSS
notes: not shown: Myc, C-terminal, kept; His, C-terminal, kept
With B3 the Kd [2] was roughly 3 nM.

B4: nanobody NB4 (VHH)
VHH: QVQLVESGGGLVQAGGSLRLSCAASGRTFRSYTLGWFRQAPGKEREFVAAIKWSTDTTYYADSVKGRFTISGDNAKNTVYLQMNSLKPEDTAVYFCAARSLSTVIAGPEIPWPYNSWGQGTQVTVSS
notes: as for B3
B4 gave a Kd [2] of roughly 10 nM.
